The target of this assay is T1, SARS-CoV-2 S1亚基 (SARS-CoV-2, UniProt P0DTC2 16-685).
T1 construct: also called S1蛋白
As to the kind of experiment: ELISA, coated S1, antibody detected with HRP goat anti-human IgG. In general terms: In an ELISA, binding on a coated surface is turned into a signal by an enzyme label.

B1: 抗体37G2 (antibody, V domains shown)
VH: QVQLVQSGAEVKKPGSSVKVSCKASGGTFSSYAITWVRQAPGQGLEWMGGIIPIFGTANFAQKFQGRVTITADESTSTAYMELSSLRSEDTAVYYCAHLGGFADPFDYWGQGTLVTVSS
VL: EIVLTQSPATLSLSPGERATLSCRASQSVSNYLAWYQQKAGQAPRVLIYDAFNRATGIPARFSGSGSGTDFTLTISSLEPEDFAVYYCQQRSNWPPRITFGQGTRLEIK
With B1, the binding result is given as “no binding (tested: 1 μg/mL)”.

B2: 抗体31C2 (antibody, V domains shown)
VH: QVQLVQSGAEVKKPGSSVKVSCKASGGTFSSYAISWVRQAPGQGLEWMGGIIPIFGTTNYAQKFQGRVTITADESTSTAYMELNSLRSEDTAVYYCAGRSAYGDKGYYFDYWGQGTLVTVSS
VL: EIVLTQSPATLSLSPGERATLSCRASQSVSNFLAWYQQKPGQAPRLLIYDASNRATGIPARFSGSGSGTDFTLTISSLQPEDFAVYYCQQRSNWPPQETFGQGTKVEIK
On to B2, for which the binding result was “no binding (tested: 1 μg/mL)”.
